{
  "source": "patent US20110154538A1",
  "about": "(UNITED STATES OF AMERICA AS REPRESENTED BY THE SECRETARY OF …, published 2011)",
  "binders": {"B1": {"name": "AltMV-Po coat protein (other)", "chain": "MSTPFPQVTQEQIDAFTPHTTSNLLPSPEQLTTIASLLVAAKVPAASTTTIALELVNFCYDNGSSAYTVVVGPSSISGVSLSQVANIVKASGTSLRKFCRFFAPIIWNLRTDKTPPANWEANGFKPTEKFAAFDFFDGVENPAAMQPPGGLVRAPSQAERIANATNKQVNLFQAAAQDNNFASNSAFITKGQLSSNSPTIQYLPPPE", "notes": "also called AltMV-Po CP; CP-Po"}},
  "biological_target": "T1, Gal4 activation domain (AD) negative control (UniProt P04386 768-881)",
  "T1 sequence": "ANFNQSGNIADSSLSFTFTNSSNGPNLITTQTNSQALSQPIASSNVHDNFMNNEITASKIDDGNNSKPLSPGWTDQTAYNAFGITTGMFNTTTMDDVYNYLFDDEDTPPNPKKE",
  "experiment": "yeast two-hybrid, growth on selective medium",
  "data": [
    {"binder": "B1", "values": [
      {"measurement": "binding result", "value": "no binding"}
    ]}
  ]
}
